{"source": "patent US7803382B2", "about": "“Method for inducing immune response to NY-CO-58” (Ludwig Institute for Cancer Research Ltd., priority 2001, dated 2010)", "molecules": {"B1": {"name": "TNKL (BC-203): serologically defined colon cancer antigen, protein SEQ ID NO:26 (protein, listed as Homo sapiens)", "chain": "QGAQRGARVGAAMGLRRSGDSREPSGPGPERVFSGGPRPPARGAGAPAPVAGAVAGCGGGQDHVGSPLRRRGSGLRDAAAEAVEPAARELFEACRNGDVERVKRLVTPEKVNSRDTAGRKSTPLHFAAGFGRKDVVEYLLQNGANVQARDDGGLIPLHNACSFGHAEVVNLLLRHGADPNARDNWNYTPLHEAAIKGKIDVCIVLLQHGAEPTIRNTDGRTALDLADPSAKAVLTGEYKKDELLESARSGNEEKMMALLTPLNVNCHASDGRKSTPLHLAAGYNRVKIVQLLLQHGADVHAKDKGDLVPLHNACSYGHYEVTELLVKHGACVNAMDLWQFTPLHEAASKNRVEVCSLLLSYGADPTLLNCHNKSAIDLAPTPQLKERLAYEFKGHSLLQAAREADVTRIKKHLSLEMVNFKHPQTHETALHCAAASPYPKRKQICELLLRKGANINEKTKEFLTPLHVASEKAHNDVVEVVVKHEAKVNALDNLGQTSLHRAAYCGHLQTCRLLLSYGCDPNIISLQGFTALQMGNENVQQLLQEGISLGNSEADRQLLEAAKAGDVETVKKLCTVQSVNCRDIEGRQSTPLHFAAGYNRVSVVEYLLQHGADVHAKDKGGLVPLHNACSYGHYEVAELLVKHGAVVNVADLWKFTPLHEAAAKGKYEICKLLLQHGADPTKKNRDGNTPLDLVKDGDTDIQDLLRGDAALLDAAKKGCLARVKKLSSPDNVNCRDTQGRHSTPLHLAAGYNNLEVAEYLLQHGADVNAQDKGGLIPLHNAASYGHVDVAALLIKYNACVNATDKWAFTPLHEAAQKGRTQLCALLLAHGADPTLKNQEGQTPLDLVSADDVSALLTAAMPPSALPSCYKPQVLNGVRSPGATADALSSGPSSPSSLSAASSLDNLSGSFSELSSVVSSSGTEGASSLEKKEVPGVDFSITQFVRNLGLEHLMDIFEREQITLDVLVEMGHKELKEIGINAYGHRHKLIKGVERLISGQQGLNPYLTLNTSGSGTILIDLSPDDKEFQSVEEEMQSTVREHRDGGHAGGIFNRYNILKIQKVCNKKLWERYTHRRKEVSEENHNHANERMLFHGSPFVNAIIHKGFDERHAYIGGMFGAGIYFAENSSKSNQYVYGIGGGTGVQFTKTDLVTFATAAALLPGNLGKVFPAVQCNENGTSPPGHHSVTGRPSVNGLALAEYVIYRGEQAYPEYLITYQIMRPEGMVDG"}}, "test_system": "sera from colon cancer patients", "experiment": "Spot assay: reactivity of serologically defined colon cancer antigens with colon cancer patient sera", "type": "binding, human", "conditions": "reactive sera/sera tested; includes autologous where applicable; sera 1:200", "experimental": "Serum samples from patients with colon cancer were screened using a modification of the plaque assay, termed a spot assay. In this method, 80×120 mm nitrocellulose membranes were precoated with a film of NZY/0.7% Agarose/2.5 mM IPTG and placed on a reservoir layer of NZY/0.7% Agarose in a 86×128 mm Omni Tray (Nalge Nunc International Corp., Naperville, Ill.). Approximately 1.0×10^5 pfU of monoclonal phage encoding individual serologically defined colon cancer antigens, in a volume of 20 μl, were mixed with 20 μl of exponentially growing E. coli XL-1 Blue MRF and spotted (0.7-μl aliquots) on the precoated nitrocellulose membranes. Membranes were incubated for 15 hours at 37° C. A total of 75 different serologically defined colon cancer antigens were spotted in duplicate per nitrocellulose membrane. The agarose film was then removed from the membrane and the filters were processed for reactivity with individual serum samples (1:200 dilution), as described in Scanlan, et al., Int. J. Cancer 76:652-658 (1998) and Scanlan, et al., Int. J. Cancer 83:456-64, (1999).", "data": [{"molecule": "B1", "values": [{"measurement": "Reactivity of individual antigens", "value": "6/75"}]}]}
